Source: US20250129404A1, “RAPID, COLORIMETRIC ASSAY TO DETECT ACETYLTRANSFERASE ACTIVITY IN BIOLOGICAL SAMPLES” (THE FEINSTEIN INSTITUTES FOR MEDICAL RESEARCH, priority 2023, published 2025)

T1: recombinant human ChAT (rChAT) (Homo sapiens, UniProt P28329)
T1 construct: recombinant human ChAT corresponding to residue 119-748; His tag (N-histidine tag) (N); made in house; host or cells: E. coli BL21-Gold (DE3)
T1 sequence (P28329 119-748): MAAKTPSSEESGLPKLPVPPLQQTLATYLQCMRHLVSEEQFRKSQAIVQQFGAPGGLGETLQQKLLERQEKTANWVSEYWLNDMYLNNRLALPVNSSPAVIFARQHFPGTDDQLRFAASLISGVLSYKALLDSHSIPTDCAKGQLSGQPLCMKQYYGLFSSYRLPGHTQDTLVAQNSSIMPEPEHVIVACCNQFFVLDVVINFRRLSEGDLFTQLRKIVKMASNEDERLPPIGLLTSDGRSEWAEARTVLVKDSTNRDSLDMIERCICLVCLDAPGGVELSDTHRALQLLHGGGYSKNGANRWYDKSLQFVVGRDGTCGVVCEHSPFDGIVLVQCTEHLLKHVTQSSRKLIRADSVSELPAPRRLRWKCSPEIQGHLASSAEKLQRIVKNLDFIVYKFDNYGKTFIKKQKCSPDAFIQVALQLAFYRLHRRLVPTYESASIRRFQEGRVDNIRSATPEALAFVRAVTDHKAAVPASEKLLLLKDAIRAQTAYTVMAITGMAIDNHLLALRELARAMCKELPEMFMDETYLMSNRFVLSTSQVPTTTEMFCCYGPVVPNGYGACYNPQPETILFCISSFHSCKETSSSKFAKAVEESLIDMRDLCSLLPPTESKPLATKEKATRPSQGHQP

T2: recombinant human ChAT (rChAT), substrate choline (Homo sapiens, UniProt P28329)
T2 construct: recombinant human ChAT corresponding to residue 119-748; His tag (N-histidine tag) (N); made in house; host or cells: E. coli BL21-Gold (DE3)
T2 sequence (P28329 119-748): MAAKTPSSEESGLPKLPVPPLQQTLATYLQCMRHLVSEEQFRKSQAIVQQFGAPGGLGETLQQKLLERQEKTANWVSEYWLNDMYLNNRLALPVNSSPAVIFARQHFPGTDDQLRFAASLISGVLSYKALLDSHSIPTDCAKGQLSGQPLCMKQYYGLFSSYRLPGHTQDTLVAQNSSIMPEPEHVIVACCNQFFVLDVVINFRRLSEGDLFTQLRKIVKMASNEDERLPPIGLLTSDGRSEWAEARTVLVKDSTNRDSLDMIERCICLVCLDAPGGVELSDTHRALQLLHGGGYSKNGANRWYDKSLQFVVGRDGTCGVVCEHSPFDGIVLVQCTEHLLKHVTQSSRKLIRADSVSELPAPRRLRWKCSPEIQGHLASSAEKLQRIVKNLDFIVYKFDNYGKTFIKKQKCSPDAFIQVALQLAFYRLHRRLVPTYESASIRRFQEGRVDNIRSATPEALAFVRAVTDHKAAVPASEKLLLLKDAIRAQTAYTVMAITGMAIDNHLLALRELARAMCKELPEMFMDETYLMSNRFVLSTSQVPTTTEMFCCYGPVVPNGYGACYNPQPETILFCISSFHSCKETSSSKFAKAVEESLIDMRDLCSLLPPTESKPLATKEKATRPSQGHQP


Experiments:
[1] = biological target: T1, recombinant human ChAT (rChAT); assay: Choline acetyltransferase (ChAT) colorimetric activity assay; type: biochemical
Experimental: Recombinant ChAT protein and ChAT PEGylation. All recombinant ChAT (rChAT) protein used was produced as described previously (10). Briefly, recombinant human ChAT corresponding to residue 119-748 (EC2.3.1.6, UnitProt 28329-3) with a N-histidine tag was expressed in E. coli BL21-Gold (DE3) cells and purified using high affinity Ni-charged columns. The purified recombinant ChAT was dialyzed at 4° C. in buffer containing 0.2×PBS, 10% glycerol and 0.5 mM TCEP (tris(2-carboxyethyl) phosphine), and subjected to extensive Triton X-114 extraction to remove contaminating endotoxins. After purification, PEGylation was carried out using MS (PEG) 12 reagent to extend the plasma half-life of the enzyme (10). Following PEGylation, the protein was dialyzed in buffer and once again extracted with Triton-X-114 to remove contaminating endotoxins. A Bradford protein assay (Bio-Rad) was used to determine rChAT protein concentration. Commercial recombinant ChAT protein was purchased from My BioSource.
Choline Acetyltransferase activity assay. An assay was developed to measure ChAT activity using an adapted version of the colorimetric assay (Reactions 1-3) (13).
Briefly, biological samples and choline chloride standards are diluted in assay buffer (containing 10 mM Tris-HCl, 150 mM NaCl, 1 mM EDTA, and 0.05% Triton X-100). 100 μl of each standard and 40 μl of each sample are added in triplicate to a 96-well plate. […] The assay is developed by addition of 150 μL of 3′3′5′5′ Tetramethylbenzidine (TMB) to all wells, and the plate is immediately analyzed spectrophotometrically at 650 nm. ChAT Activity is determined from the interpolated amount of choline depleted during the reaction, divided by the reaction time and sample volume, and multiplied by the sample dilution factor (Equation 1). In all biological samples, ChAT activity is normalized to total protein concentration, measured using Bradford protein assay (Bio-Rad) and is represented as nmol/min/mg of total protein. […]

TNF = assay: Acute endotoxemia (LPS), TNF by ELISA; type: in vivo, mouse; settings: 1 mg/kg i.p. 30 min prior to 0.3 mg/kg LPS, 90 min after LPS
Experimental: Endotoxemia. Lipopolysaccharide (LPS, Escherichia coli 0111: B4; Sigma) was sonicated for 30 min, vortexed and administered intraperitoneally (LD50 7 mg/kg). Animals were euthanized by CO2 asphyxiation 90 min post-LPS administration and blood was collected by cardiac puncture using heparinized syringes. Blood samples were kept on ice and centrifuged for 10 minutes at 5000 g. Plasma TNF levels were quantified using a commercially available ELISA (Invitrogen). Plasma total protein concentration was determined using a Bradford Protein Assay (Bio-Rad). Sepsis scores were determined at respective timepoints up to 72 hours following endotoxin administration as described previously (19), where a maximum score of 28 per mouse denotes the greatest clinical sickness score.
Administration of PEG-ChAT and Anti-ChAT Neutralizing Antibody. Pegylated recombinant ChAT protein or a custom made monoclonal anti-ChAT antibody (GenScript) was administered intraperitoneally at a 1 mg/kg dose 30 minutes prior to LPS administration. Acute endotoxemia was induced with a dose of 0.3 mg/kg LPS. Animals were returned to their home cages and euthanized 90 minutes after LPS administration.

[2] = test system: DSS-induced experimental colitis in C57Bl/6 male mice; assay: DSS colitis model; type: in vivo, mouse; settings: for histological damage (inflammation severity, crypt damage, extent of inflammation): blinded H&E scoring, day 14 (FIG. 4E-F)
Experimental: DSS Colitis Model. DSS (DSS salt, colitis grade (MW: 36000-50000), MP Biomedicals, CA) was added to the drinking water in a final concentration of 3% (wt/vol) for 7 days. The water was changed to regular water on day 8 and maintained till the end of the experiment. Survival and the disease activity index (DAI) were evaluated daily in a blinded manner. On day 14, mice were euthanized under CO2 asphyxiation and blood and tissue were collected. Colons were removed, cleaned, and sectioned longitudinally. The luminal contents were removed with cold phosphate buffered saline (PBS). Starting from the most distal end (rectum) the colon was rolled with luminal side facing upward, resulting in a “Swiss roll” with the distal end in the center and the proximal colon in the outer side of the roll. The Swiss roll was held together with a small pin and placed in 10% buffered formalin overnight at 4° C. The fixed tissue was then embedded in paraffin, sectioned at 10 μm and stained with hematoxylin and eosin. Histological analysis was carried out in a blinded manner by three independent researchers. The degree of colon inflammation was scored under the light microscope (Zeiss, Germany) using the following criteria: inflammation severity (0—none; 1—mild; 2—moderate; 3—severe), inflammation extent (0—none; 1—mucosal; 2—mucosal and submucosal; 3—transmural), Crypt damage (0—none; 1—basal, ⅓ damaged; 2—basal, ⅔/damaged; 3—crypt loss), damage distribution (0-0%; […]; 3-51-75%; 4-76-100%). Each mouse tissue was scored over 6 different sites of the colon. Serum cytokine levels (IL-6, TNFα and MCP-1) were analyzed using mouse V-Plex Biomarker Group 1 array, and the assay was performed according to the manufacturer's instructions.

hypertensive animals = settings: background statement; cited from earlier work
[3] = biological target: T2, recombinant human ChAT (rChAT), substrate choline; assay: Michaelis-Menten kinetic constants, Coenzyme A detection assay; type: biochemical; settings: rChAT 2 μg/mL; Michaelis-Menten / Lineweaver Burke (FIG. 7C-D)
Experimental: Determination of Michaelis-Menten kinetic constants. To determine the Km constants for rChAT samples, a previously published Coenzyme A detection assay was used (12). Briefly, Coenzyme A standard was diluted in assay buffer. 100 μl of each standard and 40 μl of each sample was added to the 96-well plate in triplicate. 60 μl of Cocktail A was added to all sample wells. Immediately, 50 μl of Cocktail B was added to all sample and standard wells. The plate was immediately quantitated spectrophotometrically at 324 nm every 30 seconds for 30 minutes. Enzyme velocity was quantified as CoA formed (nmol/min/ml).
Data analysis and statistics. Data were analyzed using Graphpad Prism 9.0 software using two-tailed unpaired […] for comparisons between 2 groups or two-way ANOVA or mixed-effects model followed with Šídák's multiple comparisons test for comparisons of 3 or more groups. Michaelis Menten kinetic constants were determined using the Michaelis-Menten approximation to calculate Km and Vmax from a velocity vs. substrate relationship. Correlation coefficients were calculated using a nonparametric Spearman Correlation. For all analyses, P≤0.05 was considered statistically significant.

Molecule | IC50 ([1]; preincubation of 0.4 mg/mL rChAT with inhibitor, room temperature 30 minutes (FIG. 7E)) [nM] | serum TNF vs vehicle (TNF) | spleen TNF vs vehicle (TNF) | serum TNF vs vehicle (TNF; listed as PEG-ChAT antibody) | disease activity index (DAI) vs vehicle ([2]; 1 mg/kg i.p. twice daily from day 7, from day 9 (FIG. 4C)) | severity of colitis ([2]; 1 mg/kg i.p. twice daily from day 7 to day 14) | weight loss vs vehicle ([2]; 1 mg/kg i.p. twice daily from day 7 to day 14 (FIG. 4B)) | histological damage (inflammation severity, crypt damage, extent of inflammation) [2] | colon length ([2]; day 14 (FIG. 4D)) | circulating IL-6 vs vehicle ([2]; serum, day 14 (FIG. 5A)) | circulating TNF vs vehicle ([2]; serum, day 14 (FIG. 5B)) | circulating MCP-1 vs vehicle ([2]; serum, day 14 (FIG. 5C)) | blood pressure (hypertensive animals) | Vmax [3] | detected activity after thermal denaturing, in comparison to native preparation ([1]; 70° C. for 30 minutes (FIG. 7F), P<0.01) | enzymatic activity compared to a commercially available ChAT ([1]; FIG. 7B, P<0.01)
C[N+](C)(C)CCC(=O)c1cccc2ccccc12 [alpha-NETA, reference compound] | 148 |  |  |  |  |  |  |  |  |  |  |  |  |  |  | 
PEG-ChAT: recombinant ChAT PEGylated using MS (PEG) 12 reagent (conjugate, UniProt P28329 1-748, looked up, PEGylated with MS(PEG)12, recombinant ChAT PEGylated using MS (PEG) 12 reagent) Choline O-acetyltransferase: MGLRTAKKRGLGGGGKWKREEGGGTRGRREVRPACFLQSGGRGDPGDVGGPAGNPGCSPHPRAATRPPPLPAHTPAHTPEWCGAASAEAAEPRRAGPHLCIPAPGLTKTPILEKVPRKMAAKTPSSEESGLPKLPVPPLQQTLATYLQCMRHLVSEEQFRKSQAIVQQFGAPGGLGETLQQKLLERQEKTANWVSEYWLNDMYLNNRLALPVNSSPAVIFARQHFPGTDDQLRFAASLISGVLSYKALLDSHSIPTDCAKGQLSGQPLCMKQYYGLFSSYRLPGHTQDTLVAQNSSIMPEPEHVIVACCNQFFVLDVVINFRRLSEGDLFTQLRKIVKMASNEDERLPPIGLLTSDGRSEWAEARTVLVKDSTNRDSLDMIERCICLVCLDAPGGVELSDTHRALQLLHGGGYSKNGANRWYDKSLQFVVGRDGTCGVVCEHSPFDGIVLVQCTEHLLKHVTQSSRKLIRADSVSELPAPRRLRWKCSPEIQGHLASSAEKLQRIVKNLDFIVYKFDNYGKTFIKKQKCSPDAFIQVALQLAFYRLHRRLVPTYESASIRRFQEGRVDNIRSATPEALAFVRAVTDHKAAVPASEKLLLLKDAIRAQTAYTVMAITGMAIDNHLLALRELARAMCKELPEMFMDETYLMSNRFVLSTSQVPTTTEMFCCYGPVVPNGYGACYNPQPETILFCISSFHSCKETSSSKFAKAVEESLIDMRDLCSLLPPTESKPLATKEKATRPSQGHQP |  | significantly attenuates | decrease | significantly ameliorated | significant reduction | significantly reduces | significant reduction | attenuates | significantly improves | significantly reduced | significantly reduced | significantly reduced |  |  |  | 
rChAT: recombinant human ChAT residue 119-748 with N-histidine tag, expressed in E. coli (protein, UniProt P28329 1-748, looked up) Choline O-acetyltransferase: MGLRTAKKRGLGGGGKWKREEGGGTRGRREVRPACFLQSGGRGDPGDVGGPAGNPGCSPHPRAATRPPPLPAHTPAHTPEWCGAASAEAAEPRRAGPHLCIPAPGLTKTPILEKVPRKMAAKTPSSEESGLPKLPVPPLQQTLATYLQCMRHLVSEEQFRKSQAIVQQFGAPGGLGETLQQKLLERQEKTANWVSEYWLNDMYLNNRLALPVNSSPAVIFARQHFPGTDDQLRFAASLISGVLSYKALLDSHSIPTDCAKGQLSGQPLCMKQYYGLFSSYRLPGHTQDTLVAQNSSIMPEPEHVIVACCNQFFVLDVVINFRRLSEGDLFTQLRKIVKMASNEDERLPPIGLLTSDGRSEWAEARTVLVKDSTNRDSLDMIERCICLVCLDAPGGVELSDTHRALQLLHGGGYSKNGANRWYDKSLQFVVGRDGTCGVVCEHSPFDGIVLVQCTEHLLKHVTQSSRKLIRADSVSELPAPRRLRWKCSPEIQGHLASSAEKLQRIVKNLDFIVYKFDNYGKTFIKKQKCSPDAFIQVALQLAFYRLHRRLVPTYESASIRRFQEGRVDNIRSATPEALAFVRAVTDHKAAVPASEKLLLLKDAIRAQTAYTVMAITGMAIDNHLLALRELARAMCKELPEMFMDETYLMSNRFVLSTSQVPTTTEMFCCYGPVVPNGYGACYNPQPETILFCISSFHSCKETSSSKFAKAVEESLIDMRDLCSLLPPTESKPLATKEKATRPSQGHQP |  |  |  |  |  |  |  | reduced |  |  |  |  | normalizes | 0.05 Δ CoA (nmol/min) | significantly reduced | significant increase
